Test results published in PMC10783506.

Columns and labels:
[1] = tested on: LGP2 (insect-cell expressed) (Homo sapiens); assay: fluorescence polarization; settings: Buffer A: 50 mM MOPS pH 7.4, 5 mM MgCl2, 5 mM DTT, 0.05 mM BSA, 0.01% Tween20, 0-100 mM NaCl (or KCl), with or without ATP, EMSA at 4 C, stopped-flow at 25 C …
RIG-I = assay: EMSA; settings: 60 nM protein, 20 nM RNA, monovalent streptavidin; mainly monomer; m7G cap and 2'-O-methyl on first nucleotide (Cap1); biotin at distal end; Buffer A: 50 mM MOPS pH 7.4, 5 mM MgCl2, 5 mM DTT, 0.05 mM BSA, 0.01% Tween20; 0-100 mM NaCl (or KCl), with or without ATP; EMSA at 4 C, stopped-flow at 25 C …

Substance: 3'-overhang HP RNA
- binding signal (fold Kd vs 5'OH blunt HP) ([1]; 100 mM KCl): 10

Substance: 5'OH blunt HP RNA
- Kd ([1]; 5'OH): 10 nM

Substance: 5'ppp blunt HP RNA
- Kd ([1]; 5'ppp): 10 nM

Substance: Cap1 ds27 RNA-biotin
- binding signal (RIG-I): 50 % RNA bound

Substance: ds16 DNA
- Kd ([1]; 0 mM NaCl, ATP had little effect on Kd): 200 nM

Substance: stem ds26 RNA
- Kd ([1]; 0 mM NaCl, ATP without effect, 17 bp dsRNA flanked by 4 bp dsDNA ends): 80 nM
